Starred links: 1 amine or outer side, 2 acyl side, 3 side chain; linkers in the order of their positions; H or OH if unused. No end group written: not given here. SO3H = sulfated tyrosine (Y*), O=S(=O)(O)[*:2]

In patent US20040001822A1, “Y1-isolated molecules comprising epitopes containing sulfated moieties, antibodies to such epitopes, and uses thereof” (priority 2000, published 2004) one finds Residual Binding of Y1 (% of baseline) (Geo Mean) and Residual Binding of Y1 (% of baseline) data, which are given here for one molecule.

Common to all, as to settings: remark: other sources report otherwise
Test [1] addresses Y1 scFv. The experiment in a line: competition FACS, peptide 2.5 µM preincubated with Y1-scFv, washed platelets.
The target in test [2] is Y1 scFv. The experiment in a line: competition FACS, peptide 200 µM preincubated with Y1-scFv, washed platelets.
Chain of Y1 scFv (chain, as listed by the source): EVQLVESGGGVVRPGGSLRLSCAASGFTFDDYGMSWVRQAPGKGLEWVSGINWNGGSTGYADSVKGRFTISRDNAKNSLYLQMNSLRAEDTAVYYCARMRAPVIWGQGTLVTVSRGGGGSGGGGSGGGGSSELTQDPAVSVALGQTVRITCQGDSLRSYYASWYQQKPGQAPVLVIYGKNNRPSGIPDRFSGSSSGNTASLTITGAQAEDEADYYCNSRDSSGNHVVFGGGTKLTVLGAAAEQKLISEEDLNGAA
The target of test [3] is Y1 scFv. The experiment in a line: competition ELISA, peptide 25 µM preincubated with Y1 (0.25 µg/well), glycocalicin-coated plate. (In general: An ELISA detects its analyte on a solid surface through an enzyme-linked reagent.)
Test [4] deals with Y1 scFv. The experiment in a line: competition ELISA, peptide 0.5 µM preincubated with Y1 (0.25 µg/well), glycocalicin-coated plate.
The target in test [5] is Y1 scFv. The experiment in a line: competition ELISA, peptide 2.5 µM preincubated with Y1 (0.25 µg/well), glycocalicin-coated plate.
Test [6] addresses Y1 scFv. The experiment in a line: competition ELISA, peptide 200 µM preincubated with Y1 (0.25 µg/well), glycocalicin-coated plate.

With GDEGDTDLY(SO3H)DY(SO3H)Y(SO3H)PEEDTE [P-1-S peptide (residues 268-285 of GPIbα, sulfated)], the Residual Binding of Y1 (% of baseline) (Geo Mean) in test [1] was 41%; in test [2] it was 5%. The Residual Binding of Y1 (% of baseline) is 25% in test [3], 89% in test [4], 62% in test [5] and 0% in test [6].
